Measurements published in patent publication US20230406885A1, “CYCLIC PEPTIDES FOR TRAPPING INTERLEUKIN-1 BETA” (MERCK SHARP & DOHME LLC, priority 2022, published 2023).
*1 amine or outer side, *2 acyl side, *3 side chain or, on linkers, in order; H or OH if unused. [ ]: non-standard residue; d: D form. TyrEtNAc = L-tyrosine O-ethyl acetamide, (S)-3-(4-(2-acetamidoethoxy)phenyl)-2-aminopropanoic acid, CC(=O)NCCOc1ccc(C[C@H](N[*:1])C(=O)[*:2])cc1; hF3CF3 = (S)-2-amino-4-(3-(trifluoromethyl)phenyl)butanoic acid, O=C([C@H](CCc1cccc(C(F)(F)F)c1)N[*:1])[*:2]; Cha44F2 = (S)-2-amino-3-(4,4-difluorocyclohexyl)propanoic acid, O=C([C@H](CC1CCC(F)(F)CC1)N[*:1])[*:2]; AbuMph = (S)-2-amino-4-morpholinobutanoic acid, O=C([C@H](CCN1CCOCC1)N[*:1])[*:2]; Trp(4-Cl)(βS-Me) = C[C@@H](c1c[nH]c2cccc(Cl)c12)[C@H](N)C(=O)O; Pro(trans-4-NH2) = O=C([C@@H]1C[C@@H](N[*:3])CN1[*:1])[*:2]; Bip(4'-COOH) = N[C@@H](Cc1ccc(-c2ccc(C(=O)O)cc2)cc1)C(=O)O; Phe(4-COOH) = N[C@@H](Cc1ccc(C(=O)O)cc1)C(=O)O; hTyr = N[C@@H](CCc1ccc(O)cc1)C(=O)O; hPhe = N[C@@H](CCc1ccccc1)C(=O)O; 4Pal = N[C@@H](Cc1ccncc1)C(=O)O; dDab = NCC[C@@H](N)C(=O)O; dNMeA = CN[C@H](C)C(=O)O; Dab = NCC[C@H](N)C(=O)O; Nva = CCC[C@H](N)C(=O)O; Dap = NC[C@H](N)C(=O)O

B1: SEQ ID NO: 142 (Example No. 142) (peptide)
peptide: cyclo([TyrEtNAc]W[Phe(4-COOH)]G[Pro(trans-4-NH2)][Trp(4-Cl)(βS-Me)]D[dNMeA]G[Bip(4'-COOH)]W[Dab][dA][hPhe])
SMILES: CC(=O)NCCOc1ccc(C[C@@H]2NC(=O)[C@H](CCc3ccccc3)NC(=O)[C@@H](C)NC(=O)[C@H](CCN)NC(=O)[C@H](Cc3c[nH]c4ccccc34)NC(=O)[C@H](Cc3ccc(-c4ccc(C(=O)O)cc4)cc3)NC(=O)CNC(=O)[C@@H](C)N(C)C(=O)[C@H](CC(=O)O)NC(=O)[C@H]([C@@H](C)c3c[nH]c4cccc(Cl)c34)NC(=O)[C@@H]3C[C@@H](N)CN3C(=O)CNC(=O)[C@H](Cc3ccc(C(=O)O)cc3)NC(=O)[C@H](Cc3c[nH]c4ccccc34)NC2=O)cc1
B2: SEQ ID NO: 141 (Example No. 141) (peptide)
peptide: cyclo([TyrEtNAc]W[Phe(4-COOH)]G[Pro(trans-4-NH2)][Trp(4-Cl)(βS-Me)]D[dNMeA]G[Bip(4'-COOH)]W[AbuMph][dA][hTyr])
SMILES: CC(=O)NCCOc1ccc(C[C@@H]2NC(=O)[C@H](CCc3ccc(O)cc3)NC(=O)[C@@H](C)NC(=O)[C@H](CCN3CCOCC3)NC(=O)[C@H](Cc3c[nH]c4ccccc34)NC(=O)[C@H](Cc3ccc(-c4ccc(C(=O)O)cc4)cc3)NC(=O)CNC(=O)[C@@H](C)N(C)C(=O)[C@H](CC(=O)O)NC(=O)[C@H]([C@@H](C)c3c[nH]c4cccc(Cl)c34)NC(=O)[C@@H]3C[C@@H](N)CN3C(=O)CNC(=O)[C@H](Cc3ccc(C(=O)O)cc3)NC(=O)[C@H](Cc3c[nH]c4ccccc34)NC2=O)cc1
B3: SEQ ID NO: 143 (Example No. 143) (peptide)
peptide: cyclo([TyrEtNAc]W[Phe(4-COOH)]G[Pro(trans-4-NH2)][Trp(4-Cl)(βS-Me)]D[dNMeA]G[Bip(4'-COOH)]W[Dab][dA][hTyr])
SMILES: CC(=O)NCCOc1ccc(C[C@@H]2NC(=O)[C@H](CCc3ccc(O)cc3)NC(=O)[C@@H](C)NC(=O)[C@H](CCN)NC(=O)[C@H](Cc3c[nH]c4ccccc34)NC(=O)[C@H](Cc3ccc(-c4ccc(C(=O)O)cc4)cc3)NC(=O)CNC(=O)[C@@H](C)N(C)C(=O)[C@H](CC(=O)O)NC(=O)[C@H]([C@@H](C)c3c[nH]c4cccc(Cl)c34)NC(=O)[C@@H]3C[C@@H](N)CN3C(=O)CNC(=O)[C@H](Cc3ccc(C(=O)O)cc3)NC(=O)[C@H](Cc3c[nH]c4ccccc34)NC2=O)cc1
B4: SEQ ID NO: 138 (Example No. 138) (peptide)
peptide: cyclo([TyrEtNAc]W[Phe(4-COOH)]G[Pro(trans-4-NH2)][Trp(4-Cl)(βS-Me)]D[dNMeA]G[Bip(4'-COOH)]KS[dA][hTyr])
SMILES: CC(=O)NCCOc1ccc(C[C@@H]2NC(=O)[C@H](CCc3ccc(O)cc3)NC(=O)[C@@H](C)NC(=O)[C@H](CO)NC(=O)[C@H](CCCCN)NC(=O)[C@H](Cc3ccc(-c4ccc(C(=O)O)cc4)cc3)NC(=O)CNC(=O)[C@@H](C)N(C)C(=O)[C@H](CC(=O)O)NC(=O)[C@H]([C@@H](C)c3c[nH]c4cccc(Cl)c34)NC(=O)[C@@H]3C[C@@H](N)CN3C(=O)CNC(=O)[C@H](Cc3ccc(C(=O)O)cc3)NC(=O)[C@H](Cc3c[nH]c4ccccc34)NC2=O)cc1
B5: SEQ ID NO: 144 (Example No. 144) (peptide)
peptide: cyclo([TyrEtNAc]W[Phe(4-COOH)]G[Pro(trans-4-NH2)][Trp(4-Cl)(βS-Me)]D[dNMeA]G[Bip(4'-COOH)]W[Dap][dA][hPhe])
SMILES: CC(=O)NCCOc1ccc(C[C@@H]2NC(=O)[C@H](CCc3ccccc3)NC(=O)[C@@H](C)NC(=O)[C@H](CN)NC(=O)[C@H](Cc3c[nH]c4ccccc34)NC(=O)[C@H](Cc3ccc(-c4ccc(C(=O)O)cc4)cc3)NC(=O)CNC(=O)[C@@H](C)N(C)C(=O)[C@H](CC(=O)O)NC(=O)[C@H]([C@@H](C)c3c[nH]c4cccc(Cl)c34)NC(=O)[C@@H]3C[C@@H](N)CN3C(=O)CNC(=O)[C@H](Cc3ccc(C(=O)O)cc3)NC(=O)[C@H](Cc3c[nH]c4ccccc34)NC2=O)cc1
B6: SEQ ID NO: 136 (Example No. 136) (peptide)
peptide: cyclo([TyrEtNAc]W[Phe(4-COOH)]G[Pro(trans-4-NH2)][Trp(4-Cl)(βS-Me)]D[dNMeA]G[Bip(4'-COOH)][4Pal][Nva][dA][Cha44F2])
SMILES: CCC[C@@H]1NC(=O)[C@H](Cc2ccncc2)NC(=O)[C@H](Cc2ccc(-c3ccc(C(=O)O)cc3)cc2)NC(=O)CNC(=O)[C@@H](C)N(C)C(=O)[C@H](CC(=O)O)NC(=O)[C@H]([C@@H](C)c2c[nH]c3cccc(Cl)c23)NC(=O)[C@@H]2C[C@@H](N)CN2C(=O)CNC(=O)[C@H](Cc2ccc(C(=O)O)cc2)NC(=O)[C@H](Cc2c[nH]c3ccccc23)NC(=O)[C@H](Cc2ccc(OCCNC(C)=O)cc2)NC(=O)[C@H](CC2CCC(F)(F)CC2)NC(=O)[C@@H](C)NC1=O
B7: SEQ ID NO: 139 (Example No. 139) (peptide)
peptide: cyclo([TyrEtNAc]W[Phe(4-COOH)]G[Pro(trans-4-NH2)][Trp(4-Cl)(βS-Me)]D[dNMeA]G[Bip(4'-COOH)]KS[dDab][hTyr])
SMILES: CC(=O)NCCOc1ccc(C[C@@H]2NC(=O)[C@H](CCc3ccc(O)cc3)NC(=O)[C@@H](CCN)NC(=O)[C@H](CO)NC(=O)[C@H](CCCCN)NC(=O)[C@H](Cc3ccc(-c4ccc(C(=O)O)cc4)cc3)NC(=O)CNC(=O)[C@@H](C)N(C)C(=O)[C@H](CC(=O)O)NC(=O)[C@H]([C@@H](C)c3c[nH]c4cccc(Cl)c34)NC(=O)[C@@H]3C[C@@H](N)CN3C(=O)CNC(=O)[C@H](Cc3ccc(C(=O)O)cc3)NC(=O)[C@H](Cc3c[nH]c4ccccc34)NC2=O)cc1
B8: SEQ ID NO: 137 (Example No. 137) (peptide)
peptide: cyclo([TyrEtNAc]W[Phe(4-COOH)]G[Pro(trans-4-NH2)][Trp(4-Cl)(βS-Me)]D[dNMeA]G[Bip(4'-COOH)]KL[dA][hF3CF3])
SMILES: CC(=O)NCCOc1ccc(C[C@@H]2NC(=O)[C@H](CCc3cccc(C(F)(F)F)c3)NC(=O)[C@@H](C)NC(=O)[C@H](CC(C)C)NC(=O)[C@H](CCCCN)NC(=O)[C@H](Cc3ccc(-c4ccc(C(=O)O)cc4)cc3)NC(=O)CNC(=O)[C@@H](C)N(C)C(=O)[C@H](CC(=O)O)NC(=O)[C@H]([C@@H](C)c3c[nH]c4cccc(Cl)c34)NC(=O)[C@@H]3C[C@@H](N)CN3C(=O)CNC(=O)[C@H](Cc3ccc(C(=O)O)cc3)NC(=O)[C@H](Cc3c[nH]c4ccccc34)NC2=O)cc1
B9: SEQ ID NO: 140 (Example No. 140) (peptide)
peptide: cyclo([TyrEtNAc]W[Phe(4-COOH)]G[Pro(trans-4-NH2)][Trp(4-Cl)(βS-Me)]D[dNMeA]G[Bip(4'-COOH)]W[AbuMph][dA]G)
SMILES: CC(=O)NCCOc1ccc(C[C@@H]2NC(=O)CNC(=O)[C@@H](C)NC(=O)[C@H](CCN3CCOCC3)NC(=O)[C@H](Cc3c[nH]c4ccccc34)NC(=O)[C@H](Cc3ccc(-c4ccc(C(=O)O)cc4)cc3)NC(=O)CNC(=O)[C@@H](C)N(C)C(=O)[C@H](CC(=O)O)NC(=O)[C@H]([C@@H](C)c3c[nH]c4cccc(Cl)c34)NC(=O)[C@@H]3C[C@@H](N)CN3C(=O)CNC(=O)[C@H](Cc3ccc(C(=O)O)cc3)NC(=O)[C@H](Cc3c[nH]c4ccccc34)NC2=O)cc1

Target: Recombinant human IL-1β (BioLegend 579404) (human, UniProt P01584 117-269)
Assay: cell-based or functional assay

B1 and B2 are within 1.5-fold of each other in “MRC5 IC50” value: 0.159 nM for the first, 0.177 nM for the second.

B3 and B4 are within 1.5-fold of each other in “MRC5 IC50” value: 0.23 nM for the first, 0.214 nM for the second.

First: B5
Second: B6
The “MRC5 IC50” value of the first is 5.3-fold lower: 0.0749 nM for the first, 0.396 nM for the second.

B7 and B8 are within 1.5-fold of each other in “MRC5 IC50” value: 0.133 nM for the first, 0.0939 nM for the second.

B9 was tested, and the “MRC5 IC50” value was 0.515 nM.
